In the Immune Epitope Database (IEDB) one finds IC50 and Kd data, which are given here for 18 sequences.

Bounds are passed on as bounds.

Experiment [1] concerns the target HLA-B*15:01. The experiment in a line: IEDB peptide-MHC binding, purified MHC/competitive/fluorescence; ≥ and ≤ were set here for values at or beyond the usual limits of such assays. The note with it: source organism: Zaire ebolavirus.
The target in experiment [2] is HLA-A*02:01. Described as above. The note with it: source organism: Zaire ebolavirus.
In experiment [3] the target is HLA-A*11:01. The experiment is described as above.
The target in experiment [4] is HLA-A*03:01. Described as above.
Experiment [5] concerns the target HLA-B*07:02. In words: IEDB peptide-MHC binding, purified MHC/competitive/fluorescence; filed as Kd, often an IC50 or EC50 that approximates it; ≥ and ≤ were set here for values at or beyond the usual limits of such assays.
The target in the next experiment is HLA-B*46:01. In words: IEDB peptide-MHC binding, purified MHC/direct/fluorescence; filed as Kd, often an IC50 or EC50 that approximates it; ≥ and ≤ were set here for values at or beyond the usual limits of such assays.
Experiment [6] has as its target HLA-B*07:02. The experiment is described as above.
Experiment [7] deals with HLA-B*08:01. The experiment is described as above.
The target in experiment [8] is HLA-B*15:01. The description is as above.
Experiment [9] deals with HLA-A*02:01. Described as above.
Another experiment addresses HLA-B*40:01. The description is as above.
A further experiment concerns the target HLA-A*69:01. Described as above.
The target of a further experiment is HLA-A*31:01. The description is as above.
Experiment [10] concerns the target HLA-A*11:01. The description is as above.
The target of another experiment is HLA-B*27:05. Described as above.
In the next experiment the target is HLA-B*58:01. The experiment is described as above.
For experiment [11], the target named is HLA-A*24:02. The description is as above.
For a further experiment, the target named is HLA-A*01:01. Described as above.
The target in a further experiment is HLA-A*26:01. The experiment is described as above.
For experiment [12], the target named is HLA-A*03:01. Described as above.
Experiment [13] has as its target HLA-B*07:02. In words: IEDB peptide-MHC binding, purified MHC/competitive/fluorescence; ≥ and ≤ were set here for values at or beyond the usual limits of such assays. To be noted: source organism: Zaire ebolavirus.
Experiment [14] deals with HLA-B*08:01. The description is as above. The note with it: source organism: Zaire ebolavirus.
Experiment [15] has as its target HLA-B*15:01. In words: IEDB peptide-MHC binding, purified MHC/competitive/fluorescence; filed as Kd, often an IC50 or EC50 that approximates it; ≥ and ≤ were set here for values at or beyond the usual limits of such assays.
Another experiment concerns the target HLA-B*35:01. The description is as above.
Another experiment concerns the target HLA-B*51:01. The description is as above.
The target of another experiment is HLA-B*44:02. In words: IEDB peptide-MHC binding, purified MHC/direct/fluorescence; filed as Kd, often an IC50 or EC50 that approximates it; ≥ and ≤ were set here for values at or beyond the usual limits of such assays.
The target in experiment [16] is HLA-A*24:02. The experiment in a line: IEDB peptide-MHC binding, purified MHC/competitive/fluorescence; ≥ and ≤ were set here for values at or beyond the usual limits of such assays. To be noted: source organism: Zaire ebolavirus.
Experiment [17] has as its target HLA-B*07:02. The experiment in a line: IEDB peptide-MHC binding, purified MHC/competitive/radioactivity; filed as Kd, often an IC50 or EC50 that approximates it; ≥ and ≤ were set here for values at or beyond the usual limits of such assays. The note with it: source organism: Lassa virus GA391.
A further experiment concerns the target HLA-B*54:01. Described as above. To be noted: source organism: Lassa virus GA391.
Another experiment has as its target HLA-B*53:01. The experiment is described as above. The note with it: source organism: Lassa virus GA391.
The target in a further experiment is HLA-B*57:01. The experiment in a line: IEDB peptide-MHC binding, purified MHC/direct/fluorescence; filed as Kd, often an IC50 or EC50 that approximates it; ≥ and ≤ were set here for values at or beyond the usual limits of such assays. To be noted: source organism: Mammarenavirus lassaense.
In a further experiment the target is HLA-B*48:01. Described as above. To be noted: source organism: Mammarenavirus lassaense.
Setting [18] is: source organism: Zaire ebolavirus.
Setting [19] is: source organism: Influenza A virus (A/SW/KS/13481-T/00(H1N2)).
The mark [20] stands for this setting: source organism: Influenza A virus (A/Puerto Rico/8/34/Mount Sinai(H1N1)).
Setting [21] is: source organism: Sudan ebolavirus.
Setting [22] is: source organism: Encephalitozoon cuniculi GB-M1.
Setting [23] is: source organism: Influenza A virus (A/Hong Kong/507/97(H5N1)).
The mark [24] stands for this setting: source organism: Bacillus cereus G9241.
Where [25] appears, read: source organism: Influenza A virus (A/swine/Bakum/5/95(H1N1)).
Setting [26] is: source organism: Shigella flexneri 5 str. 8401.
The mark [27] stands for this setting: source organism: Escherichia coli O157:H7 str. Sakai.
Where [28] appears, read: source organism: Mammarenavirus lassaense.

For orientation: IC50 means the point on the concentration scale where inhibition reaches its midpoint. A low value points to greater potency in that assay. Take AITAASLPK: the half-maximal inhibitory concentration (IC50) with HLA-B*15:01 [1] is no less than 183 µM; with HLA-A*02:01 [2], no less than 281 µM; in the experiment with HLA-A*11:01 [3] (setting [18]), 0.368 µM; with HLA-A*03:01 [4] (setting [18]) it was 6.97 µM.

By Kd is commonly meant a measure of binding affinity in units of concentration. In turn, APGWLIWTY came in with an equilibrium dissociation constant (Kd) with HLA-B*07:02 [5] (source organism: human gammaherpesvirus 4) of no less than 20 µM.

On to HEKGINPNY, for which the Kd is no less than 20 µM with HLA-B*46:01 (setting [19]); no less than 20 µM with HLA-B*07:02 [6] (setting [19]); no less than 20 µM with HLA-B*08:01 [7] (setting [19]); 0.541 µM in the experiment with HLA-B*15:01 [8] (setting [20]); no less than 20 µM with HLA-A*02:01 [9] (setting [19]); no less than 20 µM in the experiment with HLA-B*40:01 (setting [19]). Also, the dissociation constant Kd in the experiment with HLA-A*69:01 (setting [19]), with HLA-A*31:01 (setting [19]), with HLA-A*11:01 [10] (setting [19]), with HLA-B*27:05 (setting [19]), with HLA-B*58:01 (setting [19]) and with HLA-A*24:02 [11] (setting [19]) was no less than 20 µM in each case. In addition, the dissociation constant (Kd) in the experiment with HLA-A*01:01 (setting [19]), in the experiment with HLA-A*26:01 (setting [19]) and with HLA-A*03:01 [12] (setting [19]) was no less than 20 µM in each case.

Consider HLASTDQLK, for which the values for the IC50 in the experiment with HLA-A*11:01 [3] (setting [21]) and with HLA-A*03:01 [4] (setting [21]) were 13.8 µM and 27.1 µM, respectively.

Consider ILFQRTFSI, for which the half-maximal inhibitory concentration (IC50) is no less than 72.2 µM with HLA-B*07:02 [13]; 1.26 µM with HLA-B*08:01 [14]; no less than 375 µM with HLA-B*15:01 [1]; 0.309 µM in the experiment with HLA-A*02:01 [2]; 42.8 µM in the experiment with HLA-A*11:01 [3] (setting [18]); 2.46 µM with HLA-A*03:01 [4] (setting [18]).

In the case of ILRQNMIAL, the Kd with HLA-B*07:02 [5] (setting [22]) was 0.201 µM; with HLA-B*15:01 [15] (setting [22]), 0.188 µM; with HLA-B*35:01 (setting [22]) it was 3.18 µM; with HLA-B*51:01 (setting [22]), no less than 20 µM.

In the experiment with HLA-A*24:02 [11] (source organism: Mycobacterium tuberculosis str. Haarlem), IMPRDSWLI displayed a Kd of no more than 0.001 µM.

Regarding KSCLPACVY, the Kd was no less than 20 µM with HLA-B*46:01 (setting [23]); no less than 20 µM in the experiment with HLA-B*07:02 [6] (setting [23]); no less than 20 µM with HLA-B*08:01 [7] (setting [23]); 0.482 µM in the experiment with HLA-B*15:01 [8] (setting [20]); no less than 20 µM in the experiment with HLA-A*02:01 [9] (setting [23]); no less than 20 µM in the experiment with HLA-B*40:01 (setting [23]). Further, the Kd was no less than 20 µM with HLA-A*69:01 (setting [23]); no less than 20 µM with HLA-A*31:01 (setting [23]); no less than 20 µM with HLA-B*27:05 (setting [23]); 0.211 µM with HLA-B*58:01 (setting [23]); no less than 20 µM with HLA-B*44:02 (setting [23]); no less than 20 µM in the experiment with HLA-A*24:02 [11] (setting [23]). The Kd with HLA-A*01:01 (setting [23]), with HLA-A*26:01 (source organism: Influenza A virus(A/swine/Henan/8/2004(H9N2))) and with HLA-A*03:01 [12] (setting [23]) was no less than 20 µM throughout.

KYLEGHGFR: the half-maximal inhibitory concentration (IC50) with HLA-A*24:02 [16] was 7.69 µM; with HLA-A*03:01 [4] (setting [18]) it was no less than 195 µM.

Turning to LFAGSIAAY, the dissociation constant (Kd) worked out at 0.19 µM with HLA-B*15:01 [15] (setting [24]) and 0.0522 µM in the experiment with HLA-B*35:01 (setting [24]).

The sequence LPFSASIVF registered a Kd with HLA-B*07:02 [5] (source organism: Yersinia pestis CO92) of 0.0888 µM.

For the sequence MMVIFRLMR, the values for the IC50 in the experiment with HLA-A*02:01 [2], with HLA-A*11:01 [3] (setting [18]) and with HLA-A*03:01 [4] (setting [18]) were no less than 5440 µM, 0.0455 µM and 0.183 µM, respectively.

On to RGINDRNFW, for which the Kd with HLA-B*46:01 (setting [25]), in the experiment with HLA-B*07:02 [6] (setting [25]), with HLA-B*08:01 [7] (setting [25]), with HLA-B*15:01 [8] (setting [25]), with HLA-A*02:01 [9] (setting [25]) and with HLA-B*40:01 (setting [25]) was no less than 20 µM in each case. Further, the equilibrium dissociation constant (Kd) with HLA-A*69:01 (setting [25]) is no less than 20 µM; with HLA-A*31:01 (setting [25]) it was no less than 20 µM; with HLA-A*11:01 [10] (setting [25]), no less than 20 µM; with HLA-B*27:05 (setting [25]), no less than 20 µM; with HLA-B*58:01 (source organism: Influenza A virus (A/swine/Bakum/1832/2000(H1N2))) it was 0.0415 µM; in the experiment with HLA-A*24:02 [11] (setting [25]) it was no less than 20 µM. For the same sequence, the Kd in the experiment with HLA-A*01:01 (setting [25]) and with HLA-A*03:01 [12] (setting [25]) was no less than 20 µM each time.

For the sequence RLLNLSGVN, the half-inhibitory concentration (IC50) with HLA-A*02:01 [2] turned out to be 21.9 µM; with HLA-A*03:01 [4] (setting [18]) it was 43.2 µM.

As to TPAQLSMLL, the results for the Kd in the experiment with HLA-B*07:02 [5] (setting [26]) and with HLA-B*51:01 (setting [26]) were 0.215 µM and no less than 20 µM, respectively.

On to TPTHLSLAI, for which the Kd is no less than 20 µM with HLA-B*15:01 [15] (setting [27]), 0.0168 µM with HLA-B*35:01 (setting [27]) and 2.92 µM with HLA-B*51:01 (setting [27]).

Take VPHVIEEVM: the dissociation constant Kd in the experiment with HLA-B*07:02 [17] is 0.324 µM; with HLA-B*54:01, 12.5 µM; with HLA-B*53:01 it was 1.09 µM; with HLA-B*46:01 (setting [28]), no less than 20 µM; with HLA-B*57:01, no less than 20 µM; with HLA-B*08:01 [7] (setting [28]), 3.8 µM. For the same sequence, the Kd with HLA-B*15:01 [8] (setting [28]), with HLA-A*02:01 [9] (setting [28]), in the experiment with HLA-B*40:01 (setting [28]), with HLA-B*48:01, with HLA-A*69:01 (setting [28]) and with HLA-A*31:01 (setting [28]) was no less than 20 µM throughout. Besides, the Kd with HLA-A*11:01 [10] (setting [28]), in the experiment with HLA-B*27:05 (setting [28]), with HLA-B*58:01 (setting [28]), with HLA-B*44:02 (setting [28]), in the experiment with HLA-A*01:01 (setting [28]) and with HLA-A*03:01 [12] (setting [28]) was no less than 20 µM each time. The results for the Kd in the experiment with HLA-B*35:01 (setting [28]) and with HLA-B*51:01 (setting [28]) were 0.0002 µM and no less than 20 µM, respectively.

Regarding YVKQNTLKL, the dissociation constant (Kd) with HLA-B*07:02 [5] (source organism: Influenza A virus) was 0.0718 µM.
